Test results from patent US20100272817A1.
Square brackets hold non-standard residues; d marks the D form. Ends that are not written are not given here.

Molecular target: cholesterol ester hydrolase (CEH)

in vivo macrophage cholesterol export ([3H]-cholesterol in plasma 5 hours after peptide injection): 2.5 fold
B1: retro-inversal D amino acid peptide … (D-form; SEQ ID NO:3) (peptide)
peptide: [dR][dF][dH][dN][dP][dD][dK]G[dS][dR]G[dW][dE][dN][dA][dA][dQ][dD][dA]
modifications: also: retro-inverso peptide
